{
  "source": "paper PMC5869385",
  "target": "Torpedo muscle-type α1_(2)β1γδ nicotinic acetylcholine receptor (Torpedo marmorata (endogenous in electric organ)) (UniProt P02711)",
  "test": "radioligand binding",
  "data": [
    {"substance": "α-cobratoxin from Naja kaouthia (from UniProt P01391 1-71) (natural protein)", "values": [
      {"measurement": "Ki", "value": 0.397, "unit": "nM"}
    ]}
  ]
}
